Measurements reported in patent US20240350600A1.

Biological target: cell-bound IgE on basophils of peanut-allergic subjects
Assay: cell-based or functional assay

NNFGKLFEVKPDKKNPQLQ [Ara h 1 combined epitope peptide (409-427)]
percentage of activated basophils, one subject: 8%
